PMC2959125 (Biochemistry, 2010)
Changes are numbered by the printed parent chain. Names and notes keep the numbering of the source.

B1: N-acetyl-L-ornithine transcarbamylase from Xanthomonas campestris, K302A mutant (enzyme)
chain: MSLKHFLNTQDWSRAELDALLTQAALFKRNKLGSELKGKSIALVFFNPSMRTRTSFELGAFQLGGHAVVLQPGKDAWPIEFNLGTVMDGDTEEHIAEVARVLGRYVDLIGVRAFPKFVDWSKDREDQVLKSFAKYSPVPVINMETITHPCQELAHALALQEHFGTPDLRGKKYVLTWTYHPKPLNTAVANSALTIATRMGMDVTLLCPTPDYILDERYMDWAAQNVAESGGSLQVSHDIDSAYAGADVVYAKSWGALPFFGNWEPEKPIRDQYQHFIVDERKMALTNNGVFSHCLPLRRNVAATDAVMDSPNCIAIDEAENRLHVQKAIMAALVGQSRP
B2: N-acetyl-L-ornithine transcarbamylase from Xanthomonas campestris, K302R mutant (enzyme)
chain: B1 chain with A302R
B3: N-acetyl-L-ornithine transcarbamylase from Xanthomonas campestris, K302E mutant (enzyme)
chain: B1 chain with A302E

Molecular target: the molecule itself
Assay: crystal structure

| Protein | binding result |
| --- | --- |
| B1 | binds |
| B2 | binds |
| B3 | binds |
